Measurements from the supplement of paper PMC11246515.
± gives the standard deviation of the averaged measurements.

Test: total protein half-life in vivo (active degradation + dilution); higher = more stable protein
[1] = E. coli NCM3722 delta-clpP delta-lon delta-hslV, growth: N-lim chemostat, doubling time 6 h
[2] = E. coli NCM3722 delta-clpP, growth: N-lim chemostat, doubling time 6 h
[3] = E. coli NCM3722 delta-hslV, growth: N-lim chemostat, doubling time 6 h
[4] = E. coli NCM3722 delta-lon, growth: N-lim chemostat, doubling time 6 h
[5] = E. coli NCM3722 delta-smpB, growth: N-lim chemostat, doubling time 6 h
[6] = wild type E. coli NCM3722, growth: C-lim chemostat, doubling time 3 h
[7] = wild type E. coli NCM3722, growth: C-lim chemostat, doubling time 6 h
[8] = wild type E. coli NCM3722, growth: C-lim chemostat, doubling time 12 h
[9] = wild type E. coli NCM3722, growth: N-lim chemostat, doubling time 6 h
[10] = wild type E. coli NCM3722, growth: N-lim chemostat, doubling time 12 h
[11] = wild type E. coli NCM3722, growth: P-lim chemostat, doubling time 6 h
[12] = wild type E. coli NCM3722, growth: P-lim chemostat, doubling time 12 h

| Sequence | total protein half-life in vivo [1] [h] | total protein half-life in vivo [2] [h] | total protein half-life in vivo [3] [h] | total protein half-life in vivo [4] [h] | total protein half-life in vivo [5] [h] | total protein half-life in vivo [6] [h] | total protein half-life in vivo [7] [h] | total protein half-life in vivo [8] [h] | total protein half-life in vivo [9] [h] | total protein half-life in vivo [10] [h] | total protein half-life in vivo [11] [h] | total protein half-life in vivo [12] [h] |
| --- | --- | --- | --- | --- | --- | --- | --- | --- | --- | --- | --- | --- |
| MSLSRRQFIQASGIALCAGAVPLKASAAGQQQPLPVPPLLESRRGQPLFMTVQRAHWSFTPGTRASVWGINGRYLGPTIRVWKGDDVKLIYSNRLTENVSMTVAGLQVPGPLMGGPARMMSPNADWAPVLPIRQNAATLWYHANTPNRTAQQVYNGLAGMWLVEDEVSKSLPIPNHYGVDDFPVIIQDKRLDNFGTPEYNEPGSGGFVGDTLLVNGVQSPYVEVSRGWVRLRLLNASNSRRYQLQMNDGRPLHVISGDQGFLPAPVSVKQLSLAPGERREILVDMSNGDEVSITCGEAASIVDRIRGFFEPSSILVSTLVLTLRPTGLLPLVTDSLPMRLLPTEIMAGSPIRSRDISLGDDPGINGQLWDVNRIDVTAQQGTWERWTVRADEPQAFHIEGVMFQIRNVNGAMPFPEDRGWKDTVWVDGQVELLVYFGQPSWAHFPFYFNSQTLEMADRGSIGQLLVNPVP | 6.39 ± 0.28 | 6.3 ± 0.19 | 6.17 ± 0.57 | 6.21 ± 0.34 | 6.12 ± 0.66 | 3.28 ± 0.037 | 6.047 ± 0.037 | 11.19 ± 0.06 | 6.13 ± 0.41 | 13.5 ± 0.45 | 5.88 ± 0.35 | 12.5 ± 0.35 |
| MMRIALFLLTNLAVMVVFGLVLSLTGIQSSSVQGLMIMALLFGFGGSFVSLLMSKWMALRSVGGEVIEQPRNERERWLVNTVATQARQAGIAMPQVAIYHAPDINAFATGARRDASLVAVSTGLLQNMSPDEAEAVIAHEISHIANGDMVTMTLIQGVVNTFVIFISRILAQLAAGFMGGNRDEGEESNGNPLIYFAVATVLELVFGILASIITMWFSRHREFHADAGSAKLVGREKMIAALQRLKTSYEPQEATSMMALCINGKSKSLSELFMTHPPLDKRIEALRTGEYLK | 4.24 ± 0.051 | 5.6 ± 0.59 | 5.25 ± 0.11 | 4.77 ± 0.29 | 4.77 ± 0.48 | 2.45 ± 0.076 | 4.83 ± 0.3 | 8.92 ± 1.5 | 5.48 ± 0.92 | 10.5 ± 1.2 | 4.81 ± 0.22 | 7.97 ± 0.28 |
| MAEKRNIFLVGPMGAGKSTIGRQLAQQLNMEFYDSDQEIEKRTGADVGWVFDLEGEEGFRDREEKVINELTEKQGIVLATGGGSVKSRETRNRLSARGVVVYLETTIEKQLARTQRDKKRPLLHVETPPREVLEALANERNPLYEEIADVTIRTDDQSAKVVANQIIHMLESN [P0A6D7] | 4.84 ± 0.069 | 3.45 ± 0.24 | 2.76 ± 0.24 | 4.2 ± 0.64 | 2.69 ± 0.079 | 2.24 ± 0.27 | 3.989 ± 0.026 | 5.31 ± 0.22 | 2.26 ± 0.05 | 3.61 ± 0.34 | 2.62 ± 0.12 | 4.5 ± 0.26 |
| MKIKSIRKAVLLLALLTSTSFAAGKNVNVEFRKGHSSAQYSGEIKGYDYDTYTFYAKKGQKVHVSISNEGADTYLFGPGIDDSVDLSRYSPELDSHGQYSLPASGKYELRVLQTRNDARKNKTKKYNVDIQIK | 5.26 ± 0.85 | 6.18 ± 1.5 | 6.58 ± 0.55 | 5.92 ± 0.064 | 5.41 ± 2.6 | 3.4 ± 0.059 | 5.32 ± 0.57 | 9.98 ± 4 | 6.12 ± 0.28 | 11 ± 4.1 | 4.9 ± 0.38 | 11.1 ± 0.15 |
| MQFDYIIIGAGSAGNVLATRLTEDPNTSVLLLEAGGPDYRFDFRTQMPAALAFPLQGKRYNWAYETEPEPFMNNRRMECGRGKGLGGSSLINGMCYIRGNALDLDNWAQEPGLENWSYLDCLPYYRKAETRDMGENDYHGGDGPVSVTTSKPGVNPLFEAMIEAGVQAGYPRTDDLNGYQQEGFGPMDRTVTPQGRRASTARGYLDQAKSRPNLTIRTHAMTDHIIFDGKRAVGVEWLEGDSTIPTRATANKEVLLCAGAIASPQILQRSGVGNAELLAEFDIPLVHELPGVGENLQDHLEMYLQYECKEPVSLYPALQWWNQPKIGAEWLFGGTGVGASNHFEAGGFIRSREEFAWPNIQYHFLPVAINYNGSNAVKEHGFQCHVGSMRSPSRGHVRIKSRDPHQHPAILFNYMSHEQDWQEFRDAIRITREIMHQPALDQYRGREISPGVECQTDEQLDEFVRNHAETAFHPCGTCKMGYDEMSVVDGEGRVHGLEGLRVVDASIMPQIITGNLNATTIMIGEKIADMIRGQEALPRSTAGYFVANGMPVRAKK | 5.76 ± 0.8 | – | – | – | – | – | – | > 16 | 2.75 | – | – | 4.08 |
| MTLRTENLTVSYGTDKVLNDVSLSLPTGKITALIGPNGCGKSTLLNCFSRLLMPQSGTVFLGDNPINMLSSRQLARRLSLLPQHHLTPEGITVQELVSYGRNPWLSLWGRLSAEDNARVNVAMNQTRINHLAVRRLTELSGGQRQRAFLAMVLAQNTPVVLLDEPTTYLDINHQVDLMRLMGELRTQGKTVVAVLHDLNQASRYCDQLVVMANGHVMAQGTPEEVMTPGLLRTVFSVEAEIHPEPVSGRPMCLMR | 5.53 ± 0.17 | – | – | – | – | – | – | – | – | – | – | 3.42 |
